Values quoted from earlier work in US20250282866A1, “TREATMENT OF DISEASES RELATED TO ATP-BINDING CASSETTE TRANSPORTER 1 DYSFUNCTION USING TREM2 AGONISTS” (VIGIL NEUROSCIENCE, INC., priority 2020, published 2025).
Positions count from the first letter of the chain named. Names and notes keep the numbering of the source. Marks after values point to notes of the source that are not given here.

T1: human TREM2 (Homo sapiens, UniProt Q9NZC2)
T1 sequence (Q9NZC2 19-230): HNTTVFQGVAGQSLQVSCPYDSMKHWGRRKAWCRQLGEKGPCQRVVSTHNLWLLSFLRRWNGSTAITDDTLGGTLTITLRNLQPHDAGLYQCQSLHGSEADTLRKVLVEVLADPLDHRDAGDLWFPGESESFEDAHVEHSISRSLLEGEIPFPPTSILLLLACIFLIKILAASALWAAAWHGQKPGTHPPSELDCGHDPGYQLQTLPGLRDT

B1: V90: 6E7 variant: VH Y32E; VL S31R (antibody, V domains shown)
VH: EVQLVQSGAEVKKPGESLKISCKGSGYSFTSEWIAWVRQMPGKGLEWMGIIYPGDSDTRYSPSFQGQVTISADKSISTAYLQWSSLKASDTAMYFCARQRTFYYDSSDYFDYWGQGTLVTVSS
VL: DIQMTQSPSSVSASVGDRVTITCRASQGISRWLAWYQQKPGKAPKLLIYAASSLQNGVPSRFSGSGSGTDFTLTISSLQPEDFATYFCQQADSFPRTFGQGTKLEIK
B2: V85: 6E7 variant: VH T30R, I50T, Q99S; VL L54R (antibody, V domains shown)
VH: B1 VH with T30R, E32Y, I50T, Q99S
VL: B1 VL with R31S, L54R
B3: V27: 6E7 variant: VH S61A, Q99S; VL N56R (antibody, V domains shown)
VH: B1 VH with E32Y, S61A, A97V, Q99S
VL: B1 VL with R31S, N56R
B4: V88: 6E7 variant: VH T30G; VL S53R, N56R, F94S (antibody, V domains shown)
VH: B1 VH with T30G, E32Y
VL: B1 VL with R31S, S53R, N56R, F94S
B5: V25: 6E7 variant: VH T30G, I50L, Q99S; VL Q55A, F94M (antibody, V domains shown)
VH: B1 VH with T30G, E32Y, I50L, Q99S
VL: B1 VL with R31S, Q55A, F94M
B6: V28: 6E7 variant: VH T30Q, I50T, Y103F; VL N56S, F94L (antibody, V domains shown)
VH: B1 VH with T30Q, E32Y, I50T, Y103F
VL: B1 VL with R31S, N56S, F94L
B7: V17: 6E7 variant: VH T30G, Q99S; VL L54R, F94S (antibody, V domains shown)
VH: B1 VH with T30G, E32Y, Q99S
VL: B1 VL with R31S, L54R, F94S
B8: V16: 6E7 variant: VH F29M, S56G, Q99S; VL S53N (antibody, V domains shown)
VH: B1 VH with F29M, E32Y, S56G, Q99S
VL: B1 VL with R31S, S53N
B9: V13: 6E7 variant: VH T30G, P62A, Q99G; VL N56G, F94M (antibody, V domains shown)
VH: B1 VH with T30G, E32Y, P62A, Q99G
VL: B1 VL with R31S, N56G, F94M
B10: V87: 6E7 variant: VH T30R, T58V, S63D, Q99S; VL N56W (antibody, V domains shown)
VH: B1 VH with T30R, E32Y, T58V, S63D, Q99S
VL: B1 VL with R31S, N56W
B11: V14: 6E7 variant: VH T30G, S56Q, Q99G; VL S53R (antibody, V domains shown)
VH: B1 VH with T30G, E32Y, S56Q, Q99G
VL: B1 VL with R31S, S53R
B12: V26: 6E7 variant: VH A35G, I50T, F102M, Y112A; VL N56R, F94Y (antibody, V domains shown)
VH: B1 VH with E32Y, A35G, I50T, F102M, Y112A
VL: B1 VL with R31S, N56R, F94Y
B13: V37: 6E7 variant: VH F29H, Q65A, Q99S; VL N56W, F94Y (antibody, V domains shown)
VH: B1 VH with F29H, E32Y, Q65A, Q99S
VL: B1 VL with R31S, N56W, F94Y
B14: V38: 6E7 variant: VH T30G, T58V; VL L54R, F94H (antibody, V domains shown)
VH: B1 VH with T30G, E32Y, T58V
VL: B1 VL with R31S, L54R, F94H
B15: V24: 6E7 variant: VH T58V, Q99S; VL N56K, R96H (antibody, V domains shown)
VH: B1 VH with E32Y, T58V, Q99S
VL: B1 VL with R31S, N56K, R96H
B16: V39: 6E7 variant: VH T30G, S61N, Q99G; VL Q55V, F94S (antibody, V domains shown)
VH: B1 VH with T30G, E32Y, S61N, Q99G
VL: B1 VL with R31S, Q55V, F94S
B17: V15: 6E7 variant: VH T30A, I50T, Q99S; VL S53W, F94Y (antibody, V domains shown)
VH: B1 VH with T30A, E32Y, I50T, Q99S
VL: B1 VL with R31S, S53W, F94Y
B18: V36: 6E7 variant: VH I34L, Q99S; VL L54R, F94Y (antibody, V domains shown)
VH: B1 VH with E32Y, I34L, Q99S
VL: B1 VL with R31S, L54R, F94Y
B19: V86: 6E7 variant: VH T30G, I34L, Q65E, Q99S; VL L54R (antibody, V domains shown)
VH: B1 VH with T30G, E32Y, I34L, Q65E, Q99S
VL: B1 VL with R31S, L54R

biological target: T1, human TREM2; details: 1st screen; values printed with asterisk; concentration 110 nM or 10 nM (footnote a not given)

| Binding Signal (fold over 6E7 Parental antibody) 1st screen 110 nM or 10 nM | Molecule |
| --- | --- |
| 0.33* fold over 6E7 Parental antibod | B1 |

same assay, conditions: 1st screen; values printed without asterisk; concentration 110 nM or 10 nM (footnote a not given)

| Binding Signal (fold over 6E7 Parental antibody) 1st screen 110 nM or 10 nM | Molecule |
| --- | --- |
| 5.41 fold over 6E7 Parental antibod | B2 |
| 5.50 fold over 6E7 Parental antibod | B3 |
| 4.92 fold over 6E7 Parental antibod | B4 |
| 4.23 fold over 6E7 Parental antibod | B5 |
| 3.08 fold over 6E7 Parental antibod | B6 |
| 5.37 fold over 6E7 Parental antibod | B7 |
| 4.01 fold over 6E7 Parental antibod | B8 |
| 1.31 fold over 6E7 Parental antibod | B9 |
| 3.84 fold over 6E7 Parental antibod | B10 |
| 4.71 fold over 6E7 Parental antibod | B11 |
| 3.57 fold over 6E7 Parental antibod | B12 |
| 3.46 fold over 6E7 Parental antibod | B13 |
| 4.34 fold over 6E7 Parental antibod | B14 |
| 2.64 fold over 6E7 Parental antibod | B15 |
| 6.15 fold over 6E7 Parental antibod | B16 |
| 5.23 fold over 6E7 Parental antibod | B17 |
| 3.38 fold over 6E7 Parental antibod | B18 |
| 4.80 fold over 6E7 Parental antibod | B19 |

same assay, conditions: 2nd screen, 2 nM

| Binding Signal (fold over 6E7 Parental antibody) 2nd screen 2 nM | Molecule |
| --- | --- |
| 5.41 fold over 6E7 Parental antibod | B2 |
| 5.67 fold over 6E7 Parental antibod | B3 |
| 5.57 fold over 6E7 Parental antibod | B4 |
| 3.15 fold over 6E7 Parental antibod | B5 |
| 2.63 fold over 6E7 Parental antibod | B6 |
| 4.22 fold over 6E7 Parental antibod | B7 |
| 3.57 fold over 6E7 Parental antibod | B8 |
| 1.15 fold over 6E7 Parental antibod | B9 |
| 4.86 fold over 6E7 Parental antibod | B10 |
| 2.57 fold over 6E7 Parental antibod | B11 |
| 2.83 fold over 6E7 Parental antibod | B12 |
| 3.69 fold over 6E7 Parental antibod | B13 |
| 3.44 fold over 6E7 Parental antibod | B14 |
| 1.42 fold over 6E7 Parental antibod | B15 |
| 5.11 fold over 6E7 Parental antibod | B16 |
| 4.72 fold over 6E7 Parental antibod | B17 |
| 4.00 fold over 6E7 Parental antibod | B18 |
| 5.17 fold over 6E7 Parental antibod | B19 |

same assay, conditions: 2nd screen, 10 nM

| Binding Signal (fold over 6E7 Parental antibody) 2nd screen 10 nM | Molecule |
| --- | --- |
| 5.37 fold over 6E7 Parental antibod | B2 |
| 5.69 fold over 6E7 Parental antibod | B3 |
| 5.30 fold over 6E7 Parental antibod | B4 |
| 4.70 fold over 6E7 Parental antibod | B5 |
| 3.61 fold over 6E7 Parental antibod | B6 |
| 5.51 fold over 6E7 Parental antibod | B7 |
| 4.04 fold over 6E7 Parental antibod | B8 |
| 1.35 fold over 6E7 Parental antibod | B9 |
| 3.93 fold over 6E7 Parental antibod | B10 |
| 4.64 fold over 6E7 Parental antibod | B11 |
| 3.47 fold over 6E7 Parental antibod | B12 |
| 3.49 fold over 6E7 Parental antibod | B13 |
| 4.36 fold over 6E7 Parental antibod | B14 |
| 2.90 fold over 6E7 Parental antibod | B15 |
| 5.81 fold over 6E7 Parental antibod | B16 |
| 4.78 fold over 6E7 Parental antibod | B17 |
| 3.44 fold over 6E7 Parental antibod | B18 |
| 5.02 fold over 6E7 Parental antibod | B19 |

same assay, conditions: 2nd screen, 100 nM

| Binding Signal (fold over 6E7 Parental antibody) 2nd screen 100 nM | Molecule |
| --- | --- |
| 0.36 fold over 6E7 Parental antibod | B1 |
